Reference: PMC9529537 (The Innovation, 2022)

Target: E protein on YFV virions (Yellow fever virus, strain of the …)
Experiment: flow cytometry on cells

Binder	binding result
YD6 human monoclonal antibody, full-length IgG1 (antibody, V domains shown) VH: EVQLVESGGGLVKPGGSLRLSCAASGFIFSDYYMMWIRQAPGKGLEWISYISSSGSQIYYTESVKGRFTISRDNGKNLLYLQMNSLRGEDTALYYCATETGWRIDTWGQGTLVTVSS VL: QAVLTQPASVSGSPGQSITISCTGTGSNIETYNLVSWYQRHPGKAPKLILYEVSERPSGVSNRFSGSKSGNTASLTISGLQAEDEADYFCCSYADTNIFWVFGGGTHLTVL	binds
YD73 human monoclonal antibody, full-length IgG1 (antibody, V domains shown) VH: QVQLVQSGAEVKKPGASVKVSCKASGYTFIAYGISWVRQAPGQGLEWMGWISAHNGNTNYAQKFQGRVTVTTDTTTRTAFMELRNLRSDDTAVYYCARAPWEYNYRSSGYYDSPYWGQGTLVTVSS VL: EIVLTQSPGTLSLSPGERATLSCRASQSVVSTYLAWYQQKPGQAPRLLIYDTSTRATGIPDRFSGSGSGTDFTLTISRLEPEDFAVYYCQHYDSSPPWTFGQGTKVEIK	binds
